From doi:10.1101/2025.08.22.671821, “Cross-regulation of (p)ppGpp and c-di-GMP pathways controls a cell-cycle transition” (bioRxiv, 2025)

Target: the molecule itself
Test: crystal structure; PleD 5 mg/mL with 0.5 µM c-di-GMP and 5 mM ppGpp or pppGpp; sitting-drop vapor diffusion at 19°C; space group P6(1)22, 4 molecules per asymmetric unit; 2.9 Å (ppGpp) and 3 Å (pppGpp)

B1: PleD diguanylate cyclase from Caulobacter crescentus (enzyme)
chain: MSARILVVDDIEANVRLLEAKLTAEYYEVSTAMDGPTALAMAARDLPDIILLDVMMPGMDGFTVCRKLKDDPTTRHIPVVLITALDGRGDRIQGLESGASDFLTKPIDDVMLFARVRSLTRFKLVIDELRQREASGRRMGVIAGAAARLDGLGGRVLIVDDNERQAQRVAAELGVEHRPVIESDPEKAKISAGGPVDLVIVNAAAKNFDGLRFTAALRSEERTRQLPVLAMVDPDDRGRMVKALEIGVNDILSRPIDPQELSARVKTQIQRKRYTDYLRNNLDHSLELAVTDQLTGLHNRRYMTGQLDSLVKRATLGGDPVSALLIDIDFFKKINDTFGHDIGDEVLREFALRLASNVRAIDLPCRYGGEEFVVIMPDTALADALRIAERIRMHVSGSPFTVAHGREMLNVTISIGVSATAGEGDTPEALLKRADEGVYQAKASGRNAVVGKAA
notes: PleD, response regulator and diguanylate cyclase of Caulobacter crescentus (receiver domain D1, adaptor domain D2, DGC domain); expressed from pET11b-pleD; In the crystals each monomer carries two c-di-GMP at the I-site, and one (p)ppGpp and a Mg2+ in the active site; also called PleDCC; source: E. coli BL21(DE3), purified (Ni-NTA, SEC)
B1: binds.
